According to patent US20220062371A1 (DEBIOPHARM RESEARCH AND MANUFACTURING S A, published 2022):
Where two headings read alike, the source gives them in different places. Non-standard residues stand in square brackets, D forms with d. Groups on a side chain read outwards from the residue. Primed or numbered codes have the meaning given here. No end group written: not given here. *: point of attachment. OCPT = camptothecin (CPT) attached as an ester, CC[C@@]1(O*)C(=O)OCc2c1cc1n(c2=O)Cc2cc3ccccc3nc2-1; Propanoyl(3-maleimido) = O=C1C=CC(=O)N1CCC(=O)*; PEG4′ = tetraethylene glycol; Dab = NCC[C@H](N)C(=O)O; CO′ = not defined here; Dap = NC[C@H](N)C(=O)O; CPT = Camptothecin; AF = auristatin F; Sar = CNCC(=O)O

What was measured:
Test in all cases: cell-based or functional assay
[1] = biological target: T1, Recombinant human Cathepsin B (human, UniProt P07858 80-333)
[2] = biological target: T1, Recombinant human Cathepsin B; remark: listed apart in the source
[3] = biological target: T1, Recombinant human Cathepsin B; remark: listed apart in the source
[4] = biological target: T1, Recombinant human Cathepsin B; remark: listed apart in the source

**Q.** Which “Ratio (T1/2 Compound/T1/2 Reference)” value [1] does the source give for R[PEG4′]FRE([Sar-OCPT])F-OH [Compound 8, Arg-PEG4-Phe-Arg-Glu(Sar-OCPT)-Phe-OH] here?
**A.** 0.19

B1: Compound 3, AF-Arg-Phe-Lys(PEG4-Mal-Cys-Ac)-OH (peptide)
peptide: RFK
modifications: N-terminus acylated with auristatin F (AF); Lys 3 side chain carries PEG4-Mal-Cys-Ac
**Q.** For B1, which “Ratio (T1/2 Compound/T1/2 Reference)” value [2] is on record?
**A.** 0.11

**Q.** How did the “Ratio (T1/2 Compound/T1/2 Reference)” value [1] turn out when FXKY (Ac-Cys-Ma-PEG5 at the N-terminus; citrulline (Cit); Lys(Mcc-DM1)) [Compound 27, Ac-Cys-Ma-PEG5-Phe-Cit-Lys(Mcc-DM1)-Tyr-OH] was run?
**A.** 0.005

**Q.** {Ac-Cys-Propanoyl(3-maleimido)-PEG4′}-FKK(AF)F-OH [Compound 13, Ac-Cys-Mal-PEG4-Phe-Lys-Lys(AF)-Phe-OH] was tested. Which “Ratio (T1/2 Compound/T1/2 Reference)” value [1] did it give?
**A.** 0.15

**Q.** Which “Ratio (T1/2 Compound/T1/2 Reference)” value [3] does the source give for FKKFFKKF (Ac-Cys-Mal-PEG4 at the N-terminus; two Lys(Mal-DM1)) [Compound 29, Ac-Cys-Mal-PEG4-[Phe-Lys-Lys(Mal-DM1)-Phe]2-OH] here?
**A.** 0.23

**Q.** How did the “Ratio (T1/2 Compound/T1/2 Reference)” value [2] turn out when FXKF (DM1-Mal on the N-terminus of Phe; citrulline (Cit); Lys(PEG4-Mal-Cys-Ac)) [Compound 6, DM1-Mal-Phe-Cit-Lys(PEG4-Mal-Cys-Ac)-Phe-OH] was run?
**A.** 0.02

**Q.** For XKFKF (AF at the N-terminus; citrulline (Cit); Lys(Mal-DM1); Lys(PEG4-Mal-Cys-Ac)) [Compound 31, AF-Cit-Lys(Mal-DM1)-Phe-Lys(PEG4-Mal-Cys-Ac)-Phe-OH], which “Ratio (T1/2 Compound/T1/2 Reference)” value [4] is on record?
**A.** 0.08

**Q.** FKKFFK (Ac-Cys-Mal-PEG4 at the N-terminus; Lys(Mal-DM1)) [Compound 28, Ac-Cys-Mal-PEG4-Phe-Lys-Lys(Mal-DM1)-Phe-Phe-Lys-OH] was tested. Which “Ratio (T1/2 Compound/T1/2 Reference)” value [1] did it give?
**A.** 0.03

B2: Compound 1, AF-Arg-Lys(PEG4-Mal-Cys-Ac)-Phe-OH (peptide)
peptide: RKF
modifications: N-terminus acylated with auristatin F (AF); Lys 2 side chain carries PEG4-Mal-Cys-Ac
**Q.** Which “Ratio (T1/2 Compound/T1/2 Reference)” value [2] does the source give for B2 here?
**A.** 0.12

**Q.** FXKY (DM1-Mcc on the N-terminus of Phe; citrulline (Cit); Lys(PEG5-Ma-Cys-Ac)) [Compound 22, DM1-Mcc-Phe-Cit-Lys(PEG5-Ma-Cys-Ac)-Tyr-OH] was tested. Which “Ratio (T1/2 Compound/T1/2 Reference)” value [2] did it give?
**A.** 0.005

**Q.** How did the “Ratio (T1/2 Compound/T1/2 Reference)” value [1] turn out when R[PEG4′]FRS([CO′-CPT])F-OH [Compound 11, Arg-PEG4-Phe-Arg-Ser(CO-CPT)-Phe-OH] was run?
**A.** 0.2

**Q.** Which “Ratio (T1/2 Compound/T1/2 Reference)” value [1] does the source give for R[PEG4′]FR[Dab](CO‑CPT)F-OH [Compound 10, Arg-PEG4-Phe-Arg-Dab(CO-CPT)-Phe-OH] here?
**A.** 0.1

**Q.** How did the “Ratio (T1/2 Compound/T1/2 Reference)” value [1] turn out when FKKF (Ac-Cys-Mal-PEG4 at the N-terminus; Lys(Mal-DM1)) [Compound 12, Ac-Cys-Mal-PEG4-Phe-Lys-Lys(Mal-DM1)-Phe-OH] was run?
**A.** 0.14

**Q.** How did the “Ratio (T1/2 Compound/T1/2 Reference)” value [3] turn out when FRKRKF (Ac-Cys-Mal-PEG4 at the N-terminus; Lys(Mal-DM1); Lys(AF)) [Compound 30, Ac-Cys-Mal-PEG4-Phe-Arg-Lys(Mal-DM1)-Arg-Lys(AF)-Phe-OH] was run?
**A.** 0.07

**Q.** For FXFK (DM1-Mal on the N-terminus of Phe; citrulline (Cit); Lys(PEG4-Mal-Cys-Ac)) [Compound 7, DM1-Mal-Phe-Cit-Phe-Lys(PEG4-Mal-Cys-Ac)-OH], which “Ratio (T1/2 Compound/T1/2 Reference)” value [2] is on record?
**A.** 0.09

**Q.** R[PEG4′]FR[Dap](CO‑CPT)F-OH [Compound 9, Arg-PEG4-Phe-Arg-Dap(CO-CPT)-Phe-OH] was tested. Which “Ratio (T1/2 Compound/T1/2 Reference)” value [1] did it give?
**A.** 0.63

B3: Compound 19, AF-Cit-Lys(PEG4-Mal-Cys-Ac)-Phe-OH (peptide)
peptide: XKF
modifications: X at position 1 is citrulline (Cit); N-terminus acylated with auristatin F (AF); Lys 2 side chain carries PEG4-Mal-Cys-Ac
**Q.** For B3, which “Ratio (T1/2 Compound/T1/2 Reference)” value [2] is on record?
**A.** 0.09

B4: Compound 23, DM1-Mcc-Cit-Lys(PEG5-Ma-Cys-Ac)-Tyr-OH (peptide)
peptide: XKY
modifications: X at position 1 is citrulline (Cit); DM1-Mcc on the N-terminus; Lys 2 side chain carries PEG5-Ma-Cys-Ac
**Q.** B4 was tested. Which “Ratio (T1/2 Compound/T1/2 Reference)” value [2] did it give?
**A.** 4e-05

**Q.** FKKF (DM1-Mal on the N-terminus of Phe; Lys(PEG4-Mal-Cys-Ac)) [Compound 5, DM1-Mal-Phe-Lys-Lys(PEG4-Mal-Cys-Ac)-Phe-OH] was tested. Which “Ratio (T1/2 Compound/T1/2 Reference)” value [2] did it give?
**A.** 0.05
